Results as given in paper PMC9482650, “Quantitative fragmentomics allow affinity mapping of interactomes” (Nature Communications, 2022).

Assays:
Assay in all cases: holdup assay
Parameters in all cases: key: below the threshold = too weak to quantify, mostly under pKd 3.1 to 4
[1] = molecular target: PDZRN4_1, Q6ZMN7
[2] = molecular target: T1, LIN7B, Q9HAP6
T1 sequence (Q9HAP6 88-185, limits assumed, looked up): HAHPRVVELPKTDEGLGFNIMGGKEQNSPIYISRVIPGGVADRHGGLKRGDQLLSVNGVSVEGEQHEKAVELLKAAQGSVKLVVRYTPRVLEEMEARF

[3] = molecular target: T2, GRIP1_5, Q9Y3R0
T2 sequence (Q9Y3R0 568-668, limits assumed, looked up): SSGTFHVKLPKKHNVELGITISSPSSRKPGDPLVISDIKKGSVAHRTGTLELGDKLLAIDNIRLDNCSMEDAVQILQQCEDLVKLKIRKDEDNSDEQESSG

[4] = molecular target: MAGI1_1, Q96QZ7
[5] = molecular target: T3, MPDZ_5, O75970
T3 sequence (O75970 695-796, limits assumed, looked up): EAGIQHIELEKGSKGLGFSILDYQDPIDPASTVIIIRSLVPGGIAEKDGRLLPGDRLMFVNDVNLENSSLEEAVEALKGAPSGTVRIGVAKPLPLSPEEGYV

[6] = molecular target: IL16_4, Q14005
[7] = molecular target: PICK1, Q9NRD5
[8] = molecular target: AHNAK1, Q09666
[9] = molecular target: TJP2_1, Q9UDY2
[10] = molecular target: T4, LIN7A, O14910
T4 sequence (O14910 103-200, limits assumed, looked up): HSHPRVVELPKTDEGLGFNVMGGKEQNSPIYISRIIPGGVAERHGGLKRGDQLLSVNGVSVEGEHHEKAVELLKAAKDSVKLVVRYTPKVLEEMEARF

[11] = molecular target: T5, NHERF3_4, Q5T2W1
T5 sequence (Q5T2W1 373-468, limits assumed, looked up): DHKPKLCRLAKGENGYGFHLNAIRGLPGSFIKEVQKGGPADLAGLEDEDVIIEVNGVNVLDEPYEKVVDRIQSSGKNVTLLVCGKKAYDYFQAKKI

[12] = molecular target: T6, ARHGAP21, Q5T5U3
T6 sequence (Q5T5U3 45-169, limits assumed, looked up): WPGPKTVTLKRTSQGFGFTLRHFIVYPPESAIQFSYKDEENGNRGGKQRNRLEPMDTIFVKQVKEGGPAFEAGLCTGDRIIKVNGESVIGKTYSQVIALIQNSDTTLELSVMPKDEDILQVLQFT

[13] = molecular target: T7, TIAM2, Q8IVF5
T7 sequence (Q8IVF5 885-986, limits assumed, looked up): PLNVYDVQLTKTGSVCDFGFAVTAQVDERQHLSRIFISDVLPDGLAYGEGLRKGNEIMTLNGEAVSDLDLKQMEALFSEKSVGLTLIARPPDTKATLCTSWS

[14] = molecular target: T8, LNX2_3, Q8N448
T8 sequence (Q8N448 463-564, limits assumed, looked up): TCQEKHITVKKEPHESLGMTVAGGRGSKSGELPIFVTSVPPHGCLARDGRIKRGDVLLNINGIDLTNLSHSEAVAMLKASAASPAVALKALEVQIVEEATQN

[15] = molecular target: Inadl_1, Q8NI35
[16] = molecular target: T9, SNTG1, Q9NSN8
T9 sequence (Q9NSN8 52-150, limits assumed, looked up): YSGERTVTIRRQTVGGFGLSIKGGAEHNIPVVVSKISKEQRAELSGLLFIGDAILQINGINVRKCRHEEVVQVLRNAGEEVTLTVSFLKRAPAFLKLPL

[17] = molecular target: T10, CARD11, Q9BXL7
T10 sequence (Q9BXL7 662-765, limits assumed, looked up): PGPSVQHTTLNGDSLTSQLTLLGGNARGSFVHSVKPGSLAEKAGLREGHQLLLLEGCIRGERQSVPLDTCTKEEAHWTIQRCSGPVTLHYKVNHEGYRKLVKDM

[18] = molecular target: MAGI2_6, Q86UL8
[19] = molecular target: T11, SNTB1, Q13884
T11 sequence (Q13884 107-205, limits assumed, looked up): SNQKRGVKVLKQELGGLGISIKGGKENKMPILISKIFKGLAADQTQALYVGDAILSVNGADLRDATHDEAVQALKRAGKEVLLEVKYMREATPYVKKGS

[20] = molecular target: T12, HTRA3, P83110
T12 sequence (P83110 354-453, limits assumed, looked up): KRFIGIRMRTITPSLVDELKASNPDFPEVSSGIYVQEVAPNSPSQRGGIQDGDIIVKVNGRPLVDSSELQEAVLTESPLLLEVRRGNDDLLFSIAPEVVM

[21] = molecular target: GRID2IP_1, A4D2P6
[22] = molecular target: Inadl_9, Q8NI35
[23] = molecular target: T13, LRRC7, Q96NW7
T13 sequence (Q96NW7 1440-1537, limits assumed, looked up): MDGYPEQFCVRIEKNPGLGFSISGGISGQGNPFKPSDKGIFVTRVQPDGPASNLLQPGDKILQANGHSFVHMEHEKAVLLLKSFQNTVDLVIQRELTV

[24] = molecular target: GRASP, Q7Z6J2
[25] = plain residues with an end cap or a label only (N-terminal biotin on a linker: ado-ado)
[26] = plain residues with an end cap or a label only (N-terminal biotin on a linker: ttds)

MAGI2_6, Q86UL8, sequence (Q86UL8 1141-1229): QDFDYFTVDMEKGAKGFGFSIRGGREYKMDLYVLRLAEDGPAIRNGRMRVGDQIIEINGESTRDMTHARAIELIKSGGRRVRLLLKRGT
GRASP, Q7Z6J2, sequence (Q7Z6J2 96-193): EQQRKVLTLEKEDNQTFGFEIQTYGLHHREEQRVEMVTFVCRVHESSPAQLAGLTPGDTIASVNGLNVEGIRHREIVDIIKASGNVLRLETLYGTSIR
PDZRN4_1, Q6ZMN7, sequence (Q6ZMN7 213-318): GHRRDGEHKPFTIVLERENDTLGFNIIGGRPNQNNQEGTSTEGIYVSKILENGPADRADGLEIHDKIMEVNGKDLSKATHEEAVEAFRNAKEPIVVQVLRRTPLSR
PICK1, Q9NRD5, sequence (Q9NRD5 17-115): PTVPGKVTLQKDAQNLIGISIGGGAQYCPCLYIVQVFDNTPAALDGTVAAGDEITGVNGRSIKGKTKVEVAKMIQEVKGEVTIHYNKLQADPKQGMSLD
GRID2IP_1, A4D2P6, sequence (A4D2P6 1-87): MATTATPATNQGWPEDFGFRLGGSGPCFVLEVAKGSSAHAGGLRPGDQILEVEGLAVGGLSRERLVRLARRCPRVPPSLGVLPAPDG
IL16_4, Q14005, sequence (Q14005 1229-1329): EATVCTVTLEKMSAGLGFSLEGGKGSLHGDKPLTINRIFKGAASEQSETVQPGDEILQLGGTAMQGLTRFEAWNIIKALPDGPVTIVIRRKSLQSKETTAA
Inadl_9, Q8NI35, sequence (Q8NI35 1530-1615): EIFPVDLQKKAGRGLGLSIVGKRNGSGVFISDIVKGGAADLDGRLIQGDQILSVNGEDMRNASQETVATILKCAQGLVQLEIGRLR
MAGI1_1, Q96QZ7, sequence (Q96QZ7 1-106): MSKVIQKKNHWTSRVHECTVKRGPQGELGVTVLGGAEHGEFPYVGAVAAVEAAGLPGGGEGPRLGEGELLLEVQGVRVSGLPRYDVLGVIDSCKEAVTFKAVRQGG
AHNAK1, Q09666, sequence (Q09666 4-100): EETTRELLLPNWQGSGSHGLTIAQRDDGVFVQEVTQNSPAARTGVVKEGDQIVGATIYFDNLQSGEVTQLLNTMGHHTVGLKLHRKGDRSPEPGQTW
TJP2_1, Q9UDY2, sequence (Q9UDY2 24-128): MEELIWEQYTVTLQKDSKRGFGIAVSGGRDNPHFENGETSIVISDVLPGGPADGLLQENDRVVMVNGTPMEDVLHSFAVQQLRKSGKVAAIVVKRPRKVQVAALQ
Inadl_1, Q8NI35, sequence (Q8NI35 113-229): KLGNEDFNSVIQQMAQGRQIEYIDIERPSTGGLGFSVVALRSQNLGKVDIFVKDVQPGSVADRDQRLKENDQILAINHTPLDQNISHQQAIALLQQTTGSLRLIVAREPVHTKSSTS

In the case of GFGEERESIL [KIDINS220, Q9ULH0], the pKd [1, 25] is reported as 4.61, the pKd [2, 25] is reported as “below the threshold” and the pKd [3, 25] is reported as “below the threshold”. The pKd [4, 25] was “below the threshold”, the pKd [5, 25] was “below the threshold” and the pKd [6, 25] was 3.74. The pKd [7, 25] was 4.14, the pKd [8, 25] was “below the threshold” and the pKd [9, 25] was “below the threshold”. The pKd [10, 25] was 3.55, the pKd [11, 25] was “below the threshold” and the pKd [12, 25] was 3.9. The pKd [13, 25] was “below the threshold”, the pKd [14, 25] was “below the threshold” and the pKd [15, 25] was “below the threshold”. The pKd [16, 25] was 3.62, the pKd [17, 25] was “below the threshold” and the pKd [18, 25] was 3.67. For the same binder, the pKd [19, 25] was 5.4, the pKd [20, 25] was “below the threshold” and the pKd [21, 25] was “below the threshold”. The pKd [22, 25] was “below the threshold”, the pKd [23, 25] was “below the threshold” and the pKd [24, 25] was 3.48.

PKRPFVESNV [TANC2, Q9HCD6] was tested, and the pKd [1, 26] was “below the threshold”, the pKd [2, 26] was “below the threshold” and the pKd [3, 26] was “below the threshold”. For the same binder, the pKd [4, 26] was “below the threshold”, the pKd [5, 26] was “below the threshold” and the pKd [6, 26] was “below the threshold”. The pKd [7, 26] was “below the threshold”, the pKd [8, 26] was “below the threshold” and the pKd [9, 26] was “below the threshold”. The pKd [10, 26] was “below the threshold”, the pKd [11, 26] was “below the threshold” and the pKd [12, 26] was “below the threshold”. The pKd [13, 26] was “below the threshold”, the pKd [14, 26] was “below the threshold” and the pKd [15, 26] was “below the threshold”. For the same binder, the pKd [16, 26] was 4.79, the pKd [17, 26] was “below the threshold” and the pKd [18, 26] was 3.76. For the same binder, the pKd [19, 26] was 4.49, the pKd [20, 26] was “below the threshold” and the pKd [21, 26] was “below the threshold”. The pKd [22, 26] was “below the threshold”, the pKd [23, 26] was 4.05 and the pKd [24, 26] was “below the threshold”.

For SEKHFRETEV [HTLV1-TAX1, P03409], the pKd [1, 26] was 4.9, the pKd [2, 26] was 3.83 and the pKd [3, 26] was “below the threshold”. For the same binder, the pKd [4, 26] was “below the threshold”, the pKd [5, 26] was “below the threshold” and the pKd [6, 26] was “below the threshold”. The pKd [7, 26] was “below the threshold”, the pKd [8, 26] was 3.92 and the pKd [9, 26] was “below the threshold”. The pKd [10, 26] was 3.82, the pKd [11, 26] was “below the threshold” and the pKd [12, 26] was “below the threshold”. The pKd [13, 26] was “below the threshold”, the pKd [14, 26] was “below the threshold” and the pKd [15, 26] was “below the threshold”. For the same binder, the pKd [16, 26] was 5.43, the pKd [17, 26] was “below the threshold” and the pKd [18, 26] was 4.43. For the same binder, the pKd [19, 26] was 6.12, the pKd [20, 26] was “below the threshold” and the pKd [21, 26] was “below the threshold”. For the same binder, the pKd [22, 26] was “below the threshold”, the pKd [23, 26] was 4.69 and the pKd [24, 26] was “below the threshold”.

With VNKVWDQSSV [CIT, O14578] the pKd [1, 26] was “below the threshold”, the pKd [2, 26] was “below the threshold” and the pKd [3, 26] was “below the threshold”. The pKd [4, 26] was “below the threshold”, the pKd [5, 26] was “below the threshold” and the pKd [6, 26] was “below the threshold”. For the same binder, the pKd [7, 26] was “below the threshold”, the pKd [8, 26] was “below the threshold” and the pKd [9, 26] was “below the threshold”. The pKd [10, 26] was “below the threshold”, the pKd [11, 26] was “below the threshold” and the pKd [12, 26] was “below the threshold”. For the same binder, the pKd [13, 26] was “below the threshold”, the pKd [14, 26] was “below the threshold” and the pKd [15, 26] was “below the threshold”. For the same binder, the pKd [16, 26] was 3.73, the pKd [17, 26] was “below the threshold” and the pKd [18, 26] was 3.57. For the same binder, the pKd [19, 26] was “below the threshold”, the pKd [20, 26] was “below the threshold” and the pKd [21, 26] was “below the threshold”. For the same binder, the pKd [22, 26] was “below the threshold”, the pKd [23, 26] was “below the threshold” and the pKd [24, 26] was 4.33.
